According to publication PMC5131957, “p53 Specifically Binds Triplex DNA In Vitro and in Cells”:

How the values were obtained:
p53 full length = p53 full length (human, UniProt P04637 1-393); assay: ELISA; DO1 antibody; 2 mM Mg2+; EMSA: 5 mM Tris-HCl pH 8, 1 mM MgCl2, 0.01% Triton X-100, 50 mM KCl, on ice or 25 C, 30 min, pBSK/SmaI competitor 5-50 ng; ELISA: 1x PBS, 2 mM MgCl2, temperature not stated; conditions: protein: recombinant, chain copies: 4
p53T (last 30 aa, CTDBD) = p53T (last 30 aa, CTDBD) (human, UniProt P04637 363-393); assay: ELISA; 2 mM Mg2+; EMSA: 5 mM Tris-HCl pH 8, 1 mM MgCl2, 0.01% Triton X-100, 50 mM KCl, on ice or 25 C, 30 min, pBSK/SmaI competitor 5-50 ng; ELISA: 1x PBS, 2 mM MgCl2, temperature not stated; conditions: protein: recombinant; tags: GST (with or without); label: 3' biotin on (dA)50; intermolecular triplex, 2 x (dT)50 + 1 x (dA)50
[1] = target: p53CT (C-terminal segment: tetramerization domain + CTDBD) (human, UniProt P04637 320-393); assay: as above; conditions: protein: recombinant; tags: GST (with or without); chain copies: 4; label: 3' biotin on (dA)50; intermolecular triplex, 2 x (dT)50 + 1 x (dA)50
Chain of p53CT (C-terminal segment: tetramerization domain + CTDBD) (P04637 320-393): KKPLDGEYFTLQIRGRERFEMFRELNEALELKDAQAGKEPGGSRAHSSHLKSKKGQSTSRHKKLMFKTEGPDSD

Chain of p53 full length (P04637 whole entry): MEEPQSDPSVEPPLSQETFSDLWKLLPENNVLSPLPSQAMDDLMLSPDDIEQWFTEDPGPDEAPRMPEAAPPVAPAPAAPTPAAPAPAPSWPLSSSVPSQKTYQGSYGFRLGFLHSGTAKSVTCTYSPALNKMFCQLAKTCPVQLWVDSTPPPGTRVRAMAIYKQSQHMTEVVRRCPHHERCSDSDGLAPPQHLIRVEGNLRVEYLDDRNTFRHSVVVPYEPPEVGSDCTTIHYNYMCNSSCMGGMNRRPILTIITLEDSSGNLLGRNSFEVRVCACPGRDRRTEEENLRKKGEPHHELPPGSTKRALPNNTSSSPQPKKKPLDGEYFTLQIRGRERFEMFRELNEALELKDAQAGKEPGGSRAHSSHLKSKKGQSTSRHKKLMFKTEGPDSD
Chain of p53T (last 30 aa, CTDBD) (P04637 363-393): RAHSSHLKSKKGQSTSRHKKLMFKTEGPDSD

B1: T.A.T triplex, biotinylated (structured_DNA)
DNA 1: TTTTTTTTTTTTTTTTTTTTTTTTTTTTTTTTTTTTTTTTTTTTTTTTTT
DNA 2: AAAAAAAAAAAAAAAAAAAAAAAAAAAAAAAAAAAAAAAAAAAAAAAAAA
DNA 3: B1 DNA 1
- Kd (p53 full length; label: 3' biotin on (dA)50, intermolecular triplex, 2 x (dT)50 + 1 x (dA)50): 0.75 ± 0.07 nM
- Kd (p53T (last 30 aa, CTDBD)): 10.4 ± 0.84 nM
- Kd [1]: 1.88 ± 0.3 nM

B2: CON, biotinylated (dsDNA)
DNA 1: GACGGTATCGATAAGAGACATGCCTAGACATGCCTCTTGATATCGAATTC
DNA 2: GAATTCGATATCAAGAGGCATGTCTAGGCATGTCTCTTATCGATACCGTC
- Kd (p53 full length; label: 3' biotin on strand 1, blunt): 0.58 ± 0.05 nM
